Results from PMC5839504 (Cell, 2017).
Each block holds one binder with its values, some of them ahead of it.

Key:
[1] = molecular target: T1, S. cerevisiae Ku80vWA (residues 2-200) (S. cerevisiae, UniProt Q04437 2-200); test: ITC
T1 sequence (looked up): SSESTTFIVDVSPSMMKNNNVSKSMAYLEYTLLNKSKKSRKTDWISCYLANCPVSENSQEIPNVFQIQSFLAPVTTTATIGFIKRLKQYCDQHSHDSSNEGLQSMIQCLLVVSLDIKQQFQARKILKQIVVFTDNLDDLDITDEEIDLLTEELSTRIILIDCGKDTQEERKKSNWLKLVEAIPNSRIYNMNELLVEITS

[2] = molecular target: K. lactis Cdc13EBM (KlCdc13 residues 213-240) (Kluyveromyces lactis); test: ITC
[3] = molecular target: KlCdc13EBM-N (KlCdc13 residues 213-222) (Kluyveromyces lactis); test: ITC
[4] = molecular target: T2, S. cerevisiae Ku70/80 heterodimer (S. cerevisiae, UniProt P32807 1-602; Q04437 1-629); test: pull-down
T2 sequence (looked up) 1: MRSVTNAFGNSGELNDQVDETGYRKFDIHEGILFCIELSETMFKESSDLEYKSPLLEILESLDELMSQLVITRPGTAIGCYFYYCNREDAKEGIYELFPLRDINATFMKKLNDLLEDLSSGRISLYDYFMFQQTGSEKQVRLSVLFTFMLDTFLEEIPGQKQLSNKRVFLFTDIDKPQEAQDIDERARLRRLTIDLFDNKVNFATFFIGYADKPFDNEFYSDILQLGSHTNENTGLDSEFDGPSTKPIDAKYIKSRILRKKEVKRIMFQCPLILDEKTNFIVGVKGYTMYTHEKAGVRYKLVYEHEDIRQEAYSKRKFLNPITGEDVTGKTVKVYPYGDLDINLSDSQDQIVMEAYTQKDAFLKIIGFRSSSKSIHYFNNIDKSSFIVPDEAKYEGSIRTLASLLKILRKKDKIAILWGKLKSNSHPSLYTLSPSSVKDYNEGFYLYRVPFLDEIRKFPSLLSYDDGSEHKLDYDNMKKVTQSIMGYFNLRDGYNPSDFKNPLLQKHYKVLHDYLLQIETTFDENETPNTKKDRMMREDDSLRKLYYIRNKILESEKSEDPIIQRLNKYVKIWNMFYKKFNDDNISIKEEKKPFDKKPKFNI
T2 sequence (looked up) 2: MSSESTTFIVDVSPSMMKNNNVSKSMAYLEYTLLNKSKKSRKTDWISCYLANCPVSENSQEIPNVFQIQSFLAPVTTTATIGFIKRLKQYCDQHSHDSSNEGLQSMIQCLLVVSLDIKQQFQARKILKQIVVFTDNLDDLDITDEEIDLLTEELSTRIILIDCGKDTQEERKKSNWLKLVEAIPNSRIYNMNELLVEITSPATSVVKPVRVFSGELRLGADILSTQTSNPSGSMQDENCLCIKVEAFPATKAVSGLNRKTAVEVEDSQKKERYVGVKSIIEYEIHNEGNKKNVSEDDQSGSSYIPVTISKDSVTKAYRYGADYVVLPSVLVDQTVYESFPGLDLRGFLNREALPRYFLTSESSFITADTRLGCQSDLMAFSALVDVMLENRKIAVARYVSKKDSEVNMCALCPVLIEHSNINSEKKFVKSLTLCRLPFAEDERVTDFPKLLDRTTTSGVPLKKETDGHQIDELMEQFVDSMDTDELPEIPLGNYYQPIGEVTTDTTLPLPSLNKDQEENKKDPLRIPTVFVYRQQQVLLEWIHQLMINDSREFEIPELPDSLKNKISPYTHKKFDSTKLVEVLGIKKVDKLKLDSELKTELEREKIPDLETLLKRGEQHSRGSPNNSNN

Binder: EKISNSKLLSLLRSKT (peptide, UniProt P11978 100-115, looked up) [S. cerevisiae Sir4KBM (residues 100-115)]
Kd [1]: 5.1 µM

B1: N-terminal domain of K. lactis Est1 (KlEst1, residues 2-600) (domain or fragment)
chain: DQKLNTDLQETFSGFQKQLQSVLETDFFRDDSLMKGAIQMIHSKIMQMLLQSLIPEGLHQDITTDTGSKKSEIRSSDAHRILDLTWKHVHYPIFKYFQNWRNRNVAEGSRPNYAGHRQLNSILQKIFPQIHKLYYSTLELIFANYNLTALIPSDTRSKLNISTKKLNDDASNVLKPEDSFSIDCVMASQRCLLYIGCSQRYKIIMEHLSDRYQQADFQKPLRYLDIASTIVPSVGETFLQRGICYTHTKNFGNAAYQFVRSSLSRLPSDAGIPNFTNLLGDPNGSLFKKLLNSLDDLKVQETIKKRIINMEIMEFYILPLIGSHIFPQTWKNNRHSDRLKHFQTLLFDKIEIRYIKNISMIFQDLILLIGSFHMYQMINGVSSNTTSSAATIMPNDKTLMNGNGSANSINNSGNSNIRSIQSETKFLEFIFKFFTHLIDKVIMKEFKNCEMFQYLAMARIMMCWIKSHKNVLKFAHRSTSFCQSMVNLTNELLSSNDLSISFEHLHRPTRDYFYEEDIMLKEFGPTKFTLSDFNDEKLLSMDNLPDRLVGKSKNKLTAKEEHSSRVQVLVYSNKKFLEKNCCGFKLDTEKKRYVHTAVK
Kd [2]: 5.9 µM
Kd [3]: 15.3 µM

Second part, the binder after the results:

binding result [1]: binds
Binder: EKISNSKLRSLLRSKT (peptide, UniProt P11978 100-115, looked up) [Sir4KBM L108R]

binding result [4]: binds
Binder: EKISNSKLLSLLRSKT (peptide, UniProt P11978 100-115, looked up) [Sir4KBM (GST pull-down)]
